Legend:
[1] = biological target: HIV-1 NL4-3 CA N21C/A22C/W184A/M185A (disulfide-crosslinked pentamer) (HIV-1 NL4-3); experiment: crystal structure
[2] = biological target: HIV-1 NL4-3 CA P17C/R18L/T19C/W184A/M185A (disulfide-crosslinked pentamer) (HIV-1 NL4-3); experiment: crystal structure

## HIV-1 NL4-3 CA N21C/A22C/W184A/M185A (disulfide-crosslinked pentamer) (natural protein)
[1]
  stoichiometry N: 5

## HIV-1 NL4-3 CA P17C/R18L/T19C/W184A/M185A (disulfide-crosslinked pentamer) (natural protein)
[2]
  stoichiometry N: 5

Reference: paper PMC3075868
